{"source": "paper PMC11228984", "about": "“TREK2 Lipid Binding Preferences Revealed by Native Mass Spectrometry” (Journal of the American Society for Mass Spectrometry, 2024)", "biological_target": "the molecule itself", "assay": "native MS; 200 mM ammonium acetate, 0.062% C10E5, nanoelectrospray, Orbitrap EMR, room temperature; sample expressed with kifunensine and treated with EndoH", "data": [{"protein": "TREK2^N84Q (TREK2 residues 55-335, T58A, N144Q, C-terminal StrepTag-II) (domain or fragment, UniProt P57789-1 55-335, looked up, remaining inner core GlcNAc on Asn after EndoH cleavage; potential modifications of the glycan, TREK2, two-pore domain potassium channel, UniProt P57789-1, residues 55-335 with T58A; The text introduces the mutant as N144Q and then calls it TREK2^N84Q; The Addgene plasmid is named for the parent construct with T58A; also called TREK2 N144Q) MEGASQGGLQTVMKWKTVVAIFVVVVVYLVTGGLVFRALEQPFESSQKNTIALEKAEFLRDHVCVSPQELETLIQHALDADNAGVSPIGQSSNNSSHWDLGSAFFFAGTVITTIGYGNIAPSTEGGKIFCILYAIFGIPLFGFLLAGIGDQLGTIFGKSIARVEKVFRKKQVSQTKIRVISTILFILAGCIVFVTIPAVIFKYIEGWTALESIYFVVVTLTTVGFGDFVAGGNAGINYREWYKPLVWFWILVGLAYFAAVLSMIGDWLRVLSKKTKEEVGE", "values": [{"measurement": "stoichiometry N", "value": 2}]}]}
